Among the data in the supplement of paper PMC10567573 are protein stability index values, retold here.

Sequences and labels used below:
B1: TRIM39 (parent)
chain: YPCVLATEGFTSGRHYWEVEVGDK
B2: KRT15 (parent)
chain: SNFHINVEESVDGQVVSSHKREI
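Note: lentivirally expressed fusions sorted by FACS into six bins by GFP to DsRed ratio, PSI derived from sequencing read proportions per bin multiplied by bin number.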

Variants of B1 are the subject of one data set. Put plainly: protein stability index of a GFP-peptide fusion (GPS, HEK-293T) (PSI 1-6); higher = more stable. To be noted: c terminus: a fixed tail appended.
As to YCCVLATEGFTSGRHYWEVEVGDK [P2C], the protein stability index was 1.94.
On the same count and under the same terms, for YVCVLATEGFTSGRHYWEVEVGDK [P2V] the value was 2.4; for YQCVLATEGFTSGRHYWEVEVGDK [P2Q], 2.05.
Same read-out and setting: for YACVLATEGFTSGRHYWEVEVGDK [P2A] the value was 1.84.
Still for that read-out and setting: in the case of YRCVLATEGFTSGRHYWEVEVGDK [P2R] it was 1.86; in that of YMCVLATEGFTSGRHYWEVEVGDK [P2M], 1.76; in that of YECVLATEGFTSGRHYWEVEVGDK [P2E], 2.67.
Take YICVLATEGFTSGRHYWEVEVGDK [P2I]: the protein stability index turned out to be 1.1.
With YFCVLATEGFTSGRHYWEVEVGDK [P2F], the protein stability index amounted to 1.78.
Still for that read-out and setting: for YYCVLATEGFTSGRHYWEVEVGDK [P2Y] the value was 1.66.
Same read-out and setting: in the case of YSCVLATEGFTSGRHYWEVEVGDK [P2S] it was 1.52; in that of YLCVLATEGFTSGRHYWEVEVGDK [P2L], 2.35.
Still for that read-out and setting: in the case of YNCVLATEGFTSGRHYWEVEVGDK [P2N] it was 2.21; in that of YPCVPATEGFTSGRHYWEVEVGDK [L5P], 1.56; in that of YPCVKATEGFTSGRHYWEVEVGDK [L5K], 2.21.
Consider YPCVYATEGFTSGRHYWEVEVGDK [L5Y], for which the protein stability index came to 2.3.
For YPCVSATEGFTSGRHYWEVEVGDK [L5S], the protein stability index worked out at 2.26.
With YPCVAATEGFTSGRHYWEVEVGDK [L5A], the protein stability index worked out at 1.87.
Turning to YPCVNATEGFTSGRHYWEVEVGDK [L5N], the protein stability index turned out to be 2.58.
Still for that read-out and setting: for YPCVGATEGFTSGRHYWEVEVGDK [L5G] the value was 1.87; for YPCVVATEGFTSGRHYWEVEVGDK [L5V], 1.74; for YPCVCATEGFTSGRHYWEVEVGDK [L5C], 1.22.
On to YPCVEATEGFTSGRHYWEVEVGDK [L5E], for which the protein stability index was 2.34.
Same read-out and setting: for YPCVMATEGFTSGRHYWEVEVGDK [L5M] the value was 1.46.
On the same count and under the same terms, for YPCVRATEGFTSGRHYWEVEVGDK [L5R] the value was 1.54; for YPCVQATEGFTSGRHYWEVEVGDK [L5Q], 2.31; for YPCVWATEGFTSGRHYWEVEVGDK [L5W], 2.18.
For YPCVHATEGFTSGRHYWEVEVGDK [L5H], the protein stability index stood at 1.36.
Still for that read-out and setting: in the case of YPCVFATEGFTSGRHYWEVEVGDK [L5F] it was 1.57; in that of YPCVDATEGFTSGRHYWEVEVGDK [L5D], 2.17; in that of YPCVIATEGFTSGRHYWEVEVGDK [L5I], 1.69.
For YPCVTATEGFTSGRHYWEVEVGDK [L5T], the protein stability index worked out at 2.16.
Regarding YPCVLATAGFTSGRHYWEVEVGDK [E8A], the protein stability index turned out to be 1.33.
Same read-out and setting: in the case of YPCVLATDGFTSGRHYWEVEVGDK [E8D] it was 1.93.

Another data set covers variants of B2. The data set is described as above. To be noted: c terminus: native.
In the case of SNFHINVEESVDGQVVSSHKHEI [R21H], the protein stability index came out at 3.9.
Same read-out and setting: for SNFHINVEESVDGQVVSSHKTEI [R21T] the value was 4.4; for SNFHINVEESVDGQVVSSHKYEI [R21Y], 4.83; for SNFHINVEESVDGQVVSSHKDEI [R21D], 4.89.
Same read-out and setting: in the case of SNFHINVEESVDGQVVSSHKIEI [R21I] it was 3.16; in that of SNFHINVEESVDGQVVSSHKQEI [R21Q], 4.48.
For SNFHINVEESVDGQVVSSHKNEI [R21N], the protein stability index is 3.89.
Still for that read-out and setting: in the case of SNFHINVEESVDGQVVSSHKFEI [R21F] it was 4.32; in that of SNFHINVEESVDGQVVSSHKPEI [R21P], 3.5; in that of SNFHINVEESVDGQVVSSHKMEI [R21M], 4.91.
For SNFHINVEESVDGQVVSSHKLEI [R21L], the protein stability index turned out to be 4.52.
As to SNFHINVEESVDGQVVSSHKWEI [R21W], the protein stability index turned out to be 3.38.
In the case of SNFHINVEESVDGQVVSSHKEEI [R21E], the protein stability index came out at 5.02.
For the variant SNFHINVEESVDGQVVSSHKGEI [R21G], the protein stability index worked out at 4.9.
On to SNFHINVEESVDGQVVSSHKCEI [R21C], for which the protein stability index amounted to 4.43.
On the same count and under the same terms, in the case of SNFHINVEESVDGQVVSSHKAEI [R21A] it was 4.45; in that of SNFHINVEESVDGQVVSSHKVEI [R21V], 3.79.
Same read-out and setting: for SNFHINVEESVDGQVVSSHKKEI [R21K] the value was 4.88; for SNFHINVEESVDGQVVSSHKSEI [R21S], 5.13.
On the same count and under the same terms, in the case of SNFHINVEESVDGQVVSSHKRTI [E22T] it was 4.46; in that of SNFHINVEESVDGQVVSSHKRLI [E22L], 4.53; in that of SNFHINVEESVDGQVVSSHKRPI [E22P], 4.74.
SNFHINVEESVDGQVVSSHKRSI [E22S]: the protein stability index stood at 3.52.
For the variant SNFHINVEESVDGQVVSSHKRKI [E22K], the protein stability index turned out to be 4.82.
For the variant SNFHINVEESVDGQVVSSHKRYI [E22Y], the protein stability index worked out at 4.1.
SNFHINVEESVDGQVVSSHKRII [E22I]: the protein stability index is 4.12.
Still for that read-out and setting: for SNFHINVEESVDGQVVSSHKRQI [E22Q] the value was 4.37.
For SNFHINVEESVDGQVVSSHKRMI [E22M], the protein stability index came out at 4.05.
As for SNFHINVEESVDGQVVSSHKRCI [E22C], the protein stability index was 4.59.
Same read-out and setting: in the case of SNFHINVEESVDGQVVSSHKRAI [E22A] it was 4.63; in that of SNFHINVEESVDGQVVSSHKRWI [E22W], 3.94.
The same measure, in the same setting: for SNFHINVEESVDGQVVSSHKRGI [E22G] the value was 5.28.
Same read-out and setting: for SNFHINVEESVDGQVVSSHKRNI [E22N] the value was 4.82; for SNFHINVEESVDGQVVSSHKRRI [E22R], 2.87; for SNFHINVEESVDGQVVSSHKRDI [E22D], 4.97.
On to SNFHINVEESVDGQVVSSHKRFI [E22F], for which the protein stability index came out at 4.19.
The same measure, in the same setting: for SNFHINVEESVDGQVVSSHKRHI [E22H] the value was 4.64; for SNFHINVEESVDGQVVSSHWREI [K20W], 3.4; for SNFHINVEESVDGQVVSSHVREI [K20V], 2.4.
SNFHINVEESVDGQVVSSHTREI [K20T]: the protein stability index was 3.08.
On the same count and under the same terms, for SNFHINVEESVDGQVVSSHQREI [K20Q] the value was 2.77; for SNFHINVEESVDGQVVSSHRREI [K20R], 3.06.
Consider SNFHINVEESVDGQVVSSHYREI [K20Y], for which the protein stability index was found to be 2.18.
Same read-out and setting: for SNFHINVEESVDGQVVSSHKREM [I23M] the value was 2.52.
The same measure, in the same setting: for SNFHINVEESVDGQVVSSHKREA [I23A] the value was 4.14; for SNFHINVEESVDGQVVSSHKREF [I23F], 4.74; for SNFHINVEESVDGQVVSSHKRED [I23D], 4.89.
On the same count and under the same terms, for SNFHINVEESVDGQVVSSHKREV [I23V] the value was 4.83; for SNFHINVEESVDGQVVSSHKREQ [I23Q], 4.43.
Take SNFHINVEESVDGQVVSSHKREE [I23E]: the protein stability index is 2.44.
Turning to SNFHINVEESVDGQVVSSHKRER [I23R], the protein stability index is 3.09.
In the case of SNFHINVEESVDGQVVSSHKREP [I23P], the protein stability index is 3.83.
For SNFHINVEESVDGQVVSSHKREG [I23G], the protein stability index worked out at 3.55.
On the same count and under the same terms, in the case of SNFHINVEESVDGQVVSSHKREW [I23W] it was 2.45; in that of SNFHINVEESVDGQVVSSHKREN [I23N], 4.98.
As to SNFHINVEESVDGQVVSSHKREK [I23K], the protein stability index is 5.16.
On the same count and under the same terms, for SNFHINVEESVDGQVVSSHKRET [I23T] the value was 4.32.
On to SNFHINVEESVDGQVVSSHKREC [I23C], for which the protein stability index amounted to 4.94.
As to SNFHINVEESVDGQVVSSHKRES [I23S], the protein stability index worked out at 3.79.
For the variant SNFHINVEESVDGQVVSSHKREH [I23H], the protein stability index was determined as 4.13.
Same read-out and setting: for SNFHINVEESVDGQVVSSHKREY [I23Y] the value was 4.55.
